For 2 molecules, enrichment of the RPL5 mRNA, compared to the non-specific r-protein mRNAs, in the Syo1-FTpA IgG-Sepharose purification from extracts of cycloheximide-treated cells (real-time qRT-PCR) and enrichment of the RPL4 mRNA, compared to the non-specific r-protein mRNAs, in the Acl4-TAP IgG-Sepharose purification from extracts of cycloheximide-treated cells (real-time qRT-PCR) results are on record in paper PMC4598080.

Assay [1] deals with T1, Rpl5 (uL18) (S. cerevisiae (endogenous in yeast cells)) (UniProt P26321).
T1 sequence: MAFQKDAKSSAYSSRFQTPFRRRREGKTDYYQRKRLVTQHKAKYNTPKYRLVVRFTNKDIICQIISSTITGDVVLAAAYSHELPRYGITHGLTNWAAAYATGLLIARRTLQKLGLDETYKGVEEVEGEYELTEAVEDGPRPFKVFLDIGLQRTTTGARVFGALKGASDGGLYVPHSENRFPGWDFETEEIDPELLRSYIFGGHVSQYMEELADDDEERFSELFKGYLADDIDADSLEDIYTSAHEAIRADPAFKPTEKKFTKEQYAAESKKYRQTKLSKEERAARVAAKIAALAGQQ

Assay [2] addresses Rpl4 (uL4), non-ribosome bound (S. cerevisiae (endogenous in yeast cells)) (UniProt P10664).
Sequence of UniProt P10664 (P10664 whole entry): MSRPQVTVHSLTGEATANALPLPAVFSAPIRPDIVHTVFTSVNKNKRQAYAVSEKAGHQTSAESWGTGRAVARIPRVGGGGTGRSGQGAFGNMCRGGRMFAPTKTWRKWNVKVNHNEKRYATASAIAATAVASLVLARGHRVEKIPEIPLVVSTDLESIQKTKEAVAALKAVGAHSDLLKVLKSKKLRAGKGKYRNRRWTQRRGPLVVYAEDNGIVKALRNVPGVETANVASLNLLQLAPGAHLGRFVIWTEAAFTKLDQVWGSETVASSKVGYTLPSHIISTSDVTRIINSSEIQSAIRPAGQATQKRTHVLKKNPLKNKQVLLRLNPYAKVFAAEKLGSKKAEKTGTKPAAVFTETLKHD

B1: Syo1-FTpA (natural protein)
chain: MGRSKKRSRASSSRLNPLRKAGSNDNNKDTNVVNKKLQPLLQNLSSVVPNDRSIALSSISVLCEDAHMRQLLLKEKLVPIILNKLLNDSNSDIVVESFGLLRNLSLEEGYDVSIYLWRSDIWTSITSNFGRIVESLSALQAAEQQPQLKPAGKSKIESKRLLFDFADNLLSLVVALSNGSDDILNEILTESKINEIFQVISQLLKYGVEKLPINLFNTTLDLIYDLSSESFEFIDHVSNNELLSQFLNGLSPALHPQANELTKVLIEGIHCQFLDMKITYDQCNKMIHSVCHSINNIDPVQLVNDINNPVEIGPATSKDESSKVITKIKDYNAKRNESMIKLQSIEIAIDLITAIIEIVASKYESPESQEVAIPEELINTLTNFLPHVFMILKDTFTSRILIGWNNLIWLFVSLSLTELSGELLTTLWSYVTQLDSQDDLSIKIGRMGCIWALLKLIFPDGAFESENRALINVQMLNNSGFARGIIEEFQNNNDLELQQKCINVLSTYAMIQGQIDANKEIGQFFIQTLTQLNVRPEILIEMTNSLFQIYGDASYDYNEPIFVRGGFLSILKDQVVPNLRQQFKMVDKNKNPELKERCHDCFTTLDSFIHYKMNENSTNQ
Molecule B1 had an enrichment of the RPL5 mRNA, compared to the non-specific r-protein mRNAs, in the Syo1-FTpA IgG-Sepharose purification from extracts of cycloheximide-treated cells (real-time qRT-PCR) in assay [1] of 150 fold.

B2: C-terminally TAP-tagged Acl4 (natural protein)
chain: MSELEATIRQAKEALAENNAKKALKILKPFKSSLKKENANNVILNEVFADAYLDNGQVEKAYPILARACELDPEGQVGGPDKFFTMGQIMGGQDGVSIITRGIMNISNTGGEMLTNVQVEKIVGGLLSVIEIWMTDLCMEPNAEEQCEELIQKAMELTEGKSPETWSTLGSIKISQQKFGEAYEAFSQAWNFFELKKQEIGSGINENGDTTQKAGLQSEYVDLLQPLLSLTKMCLEVGAYEVALKVIAAVRDIDEDNIEGYYLEGFTYYLMSKLEIFKLNNPEVSLRPENIYEFNQLIQEVPLDLSHEPISQLIYDSRLALSFALQAGVNADSKDEIVQELLGGANALLQEIGGPLDPSELTQIKKGDLVNENEDLEELDIEEEYSD
Consider B2, for which the enrichment of the RPL4 mRNA, compared to the non-specific r-protein mRNAs, in the Acl4-TAP IgG-Sepharose purification from extracts of cycloheximide-treated cells (real-time qRT-PCR) in assay [2] was found to be 150 fold.
